T1: Npl3 RRM1 (Saccharomyces cerevisiae, UniProt Q01560 114-201)
T1 sequence: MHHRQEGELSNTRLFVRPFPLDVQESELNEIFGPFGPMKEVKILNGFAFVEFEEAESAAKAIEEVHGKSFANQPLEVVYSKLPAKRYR

B1: polyG 6mer (ssDNA)
DNA: GGGGGG
B2: polyA 6mer (ssDNA)
DNA: AAAAAA
B3: polyC 6mer (ssDNA)
DNA: CCCCCC
B4: polyT 6mer (ssDNA)
DNA: TTTTTT

For the data set, the target named is T1, Npl3 RRM1. Nature of the data set: NMR titration.
As to B1, the binding result is “no binding”.

For the molecule B2, the binding result was “no binding”.

Regarding B3, the binding result was “binds”.

As to B4, the binding result is “no binding”.

Source of the values: article doi:10.1101/2022.05.24.493251.
